In paper PMC7305185, “Non-cooperative 4E-BP2 folding with exchange between eIF4E-binding and binding-incompatible states tunes cap-dependent translation inhibition” (Nature Communications, 2020):

Target: T1, eukaryotic translation initiation factor 4E (eIF4E) (UniProt P06730 1-217)
T1 construct: eukaryotic translation initiation factor 4E; Expressed from a pET SUMO vector; The SUMO tag was cleaved with Ulp1 and removed on Ni-NTA; source: E. coli BL21-CodonPlus (DE3)-RIPL, purified (Ni-NTA, S75 gel filtration)
Experiment: ITC; MicroCal ITC200; data collection as detailed in ref. 11; KD as mean and standard deviation of repeat samples (n = 3 for 5p-4E-BP2, n = 2 or 1 for the other variants)
Conditions: both partners purified

T1 sequence (P06730 whole entry): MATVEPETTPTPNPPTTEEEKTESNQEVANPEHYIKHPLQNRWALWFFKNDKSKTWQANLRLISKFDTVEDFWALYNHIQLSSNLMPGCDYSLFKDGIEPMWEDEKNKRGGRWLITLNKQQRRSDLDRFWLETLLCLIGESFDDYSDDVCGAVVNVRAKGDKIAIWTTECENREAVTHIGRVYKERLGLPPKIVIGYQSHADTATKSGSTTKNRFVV

Kd: 15 µM
B1: five-phospho 4E-BP2 (pT37/pT46/pS65/pT70/pS83) (natural protein, UniProt Q13542 1-120, looked up)
chain: MSSSAGSGHQPSQSRAIPTRTVAISDAAQLPHDYCTTPGGTLFSTTPGGTRIIYDRKFLLDRRNSPMAQTPPCHLPNIPGVTSPGTLIEDSKVEVNNLNNLNNHDRKHAVGDDAQFEMDI
modifications: phosphothreonine at 37, 46 and 70; phosphoserine at 65 and 83
notes: also called 5p-4E-BP2; WT 5p-4E-BP2; source: E. coli BL21-CodonPlus (DE3)-RIPL, purified (Ni-NTA, S75 gel filtration); phosphorylated with Erk2, purified again by gel filtration
